The source of these data is paper PMC2475632.

B1: 21-mer/44DDP (dsDNA)
DNA 1: GTCCCTGTTCGGGCGCCAGGA
DNA 2: GATCACGAGACTAGCCTCTGGTCTCCTGGCGCCCGAACAGGGAC
modifications: cisplatin-d(GpG) intrastrand cross-link at template G20-G21 (5' to 3' numbering; GG inferred from primer 23/24 sites)
B2: 26-mer/44DDP (dsDNA)
DNA 1: GTCCCTGTTCGGGCGCCAGGAGACCA
DNA 2: GATCACGAGACTAGCCTCTGGTCTCCTGGCGCCCGAACAGGGAC
modifications: cisplatin-d(GpG) intrastrand cross-link at template G20-G21
B3: 22-mer/44CTL (dsDNA)
DNA 1: GTCCCTGTTCGGGCGCCAGGAG
DNA 2: GATCACGAGACTAGCCTCTGGTCTCCTGGCGCCCGAACAGGGAC
B4: 24-mer/44CTL (dsDNA)
DNA 1: GTCCCTGTTCGGGCGCCAGGAGAC
DNA 2: GATCACGAGACTAGCCTCTGGTCTCCTGGCGCCCGAACAGGGAC
B5: 23-mer/44CTL (dsDNA)
DNA 1: GTCCCTGTTCGGGCGCCAGGAGA
DNA 2: GATCACGAGACTAGCCTCTGGTCTCCTGGCGCCCGAACAGGGAC
B6: 27-mer/44CTL (dsDNA)
DNA 1: GTCCCTGTTCGGGCGCCAGGAGACCAG
DNA 2: GATCACGAGACTAGCCTCTGGTCTCCTGGCGCCCGAACAGGGAC
B7: 26-mer/44CTL (dsDNA)
DNA 1: GTCCCTGTTCGGGCGCCAGGAGACCA
DNA 2: GATCACGAGACTAGCCTCTGGTCTCCTGGCGCCCGAACAGGGAC
B8: 25-mer/44DDP (dsDNA)
DNA 1: GTCCCTGTTCGGGCGCCAGGAGACC
DNA 2: GATCACGAGACTAGCCTCTGGTCTCCTGGCGCCCGAACAGGGAC
modifications: cisplatin-d(GpG) intrastrand cross-link at template G20-G21
B9: 23-mer/44DDP (dsDNA)
DNA 1: GTCCCTGTTCGGGCGCCAGGAGA
DNA 2: GATCACGAGACTAGCCTCTGGTCTCCTGGCGCCCGAACAGGGAC
modifications: cisplatin-d(GpG) intrastrand cross-link at template G20-G21
B10: 22-mer/44DDP (dsDNA)
DNA 1: GTCCCTGTTCGGGCGCCAGGAG
DNA 2: GATCACGAGACTAGCCTCTGGTCTCCTGGCGCCCGAACAGGGAC
modifications: cisplatin-d(GpG) intrastrand cross-link at template G20-G21
B11: 21-mer/44CTL (dsDNA)
DNA 1: GTCCCTGTTCGGGCGCCAGGA
DNA 2: GATCACGAGACTAGCCTCTGGTCTCCTGGCGCCCGAACAGGGAC
B12: 27-mer/44DDP (dsDNA)
DNA 1: GTCCCTGTTCGGGCGCCAGGAGACCAG
DNA 2: GATCACGAGACTAGCCTCTGGTCTCCTGGCGCCCGAACAGGGAC
modifications: cisplatin-d(GpG) intrastrand cross-link at template G20-G21
B13: 24-mer/44DDP (dsDNA)
DNA 1: GTCCCTGTTCGGGCGCCAGGAGAC
DNA 2: GATCACGAGACTAGCCTCTGGTCTCCTGGCGCCCGAACAGGGAC
modifications: cisplatin-d(GpG) intrastrand cross-link at template G20-G21
B14: 25-mer/44CTL (dsDNA)
DNA 1: GTCCCTGTTCGGGCGCCAGGAGACC
DNA 2: GATCACGAGACTAGCCTCTGGTCTCCTGGCGCCCGAACAGGGAC

For this series, the target named is T1, Dpo4 (DNA polymerase IV) (Sulfolobus solfataricus, UniProt Q97W02 1-352).
T1 sequence: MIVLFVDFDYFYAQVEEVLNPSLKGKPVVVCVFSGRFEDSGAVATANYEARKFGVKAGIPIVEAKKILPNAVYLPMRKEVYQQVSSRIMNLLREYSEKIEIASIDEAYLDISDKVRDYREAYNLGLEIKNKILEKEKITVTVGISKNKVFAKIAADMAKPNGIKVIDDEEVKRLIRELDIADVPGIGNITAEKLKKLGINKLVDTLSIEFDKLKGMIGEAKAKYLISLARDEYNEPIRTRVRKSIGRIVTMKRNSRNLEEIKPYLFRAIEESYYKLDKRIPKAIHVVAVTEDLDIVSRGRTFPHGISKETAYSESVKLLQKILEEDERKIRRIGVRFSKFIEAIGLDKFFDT
The series is described as follows: EMSA. (In general: In EMSA bound probe runs differently from free probe, usually more slowly.)
What is called Kd is the free concentration of one partner at which half of the binding sites on the other are occupied at equilibrium, for simple one-to-one binding. A higher Kd goes with lower affinity. As for B1, binding was characterised by a dissociation constant (Kd) of 8 ± 1 nM. The result for B2 reads 12 ± 2 nM; that for B3, 16 ± 3 nM; that for B4, 8 ± 1 nM. The same measure for B5: 17 ± 2 nM; for B6: 13 ± 4 nM. The result for B7 reads 11 ± 2 nM; that for B8, 17 ± 4 nM. B9 yielded a Kd of 56 ± 9 nM. Regarding B10, the Kd was found to be 21 ± 4 nM. In turn, B11 came in with a Kd of 18 ± 3 nM. Consider B12, for which the Kd worked out at 17 ± 3 nM. The same measure for B13: 26 ± 3 nM; for B14: 5 ± 1 nM.
